Source: article PMC4045705 (Chembiochem : a European journal of chemical biology, 2014)

Target: phosphorylated extracellular regulated kinase 2 (pERK2) (UniProt P28482 1-360, phosphorylated (sites not given))
Experiment: SPR

Sequence of phosphorylated extracellular regulated kinase 2 (pERK2) (P28482 whole entry): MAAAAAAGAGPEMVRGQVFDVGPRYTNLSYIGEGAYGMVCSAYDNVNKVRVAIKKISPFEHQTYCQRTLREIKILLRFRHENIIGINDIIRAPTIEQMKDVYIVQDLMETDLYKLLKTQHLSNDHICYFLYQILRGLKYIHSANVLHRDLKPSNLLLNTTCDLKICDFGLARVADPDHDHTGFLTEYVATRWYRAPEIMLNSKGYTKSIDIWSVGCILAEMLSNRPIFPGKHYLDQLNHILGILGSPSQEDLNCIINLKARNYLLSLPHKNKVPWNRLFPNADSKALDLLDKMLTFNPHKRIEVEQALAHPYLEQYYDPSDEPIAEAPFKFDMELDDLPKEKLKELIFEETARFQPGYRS

B1: synthetic DARPin pE59 (designed binder)
chain: GGGGGSDLGKKLLEAARAGQDDEVRILXANGADVNALDEDGLTPLHLAAQLGHLEIVEVLLKYGADVNAEDNFGITPLHLAAIRGHLEIVEVLLKHGADVNAQDKFGKTAFDISIDNGNEDLAEILQKLN
modifications: norleucine (Nle) at 28 in place of Met; C-terminal carboxamide (CONH2) at 130Asn
Kd: 190 nM
